The labels stand for the following.
T1: MBP_(A216H_K220H)-SUFU-Δ_(W61D_L62S_G63F_P453A_Δ454–456_K457A) (human, UniProt Q9UMX1 32-278; Q9UMX1 361-483, W61D | L62S | G63F | P453A | Δ454–456 | K457A)
T1 construct: human SUFU, residues 32-278, WLG61-63 mutated to DSF; heptamer that replaces amino acids 279-360 (the IDR), as in MBP-SUFU-Δ; human SUFU, residues 361-483, a flexible loop shortened; Derived from MBP-SUFU-Δ; residues 216 and 220 of the MBP moiety mutated to histidine; crystallised with zinc acetate and maltose; source: E. coli JM109 (DE3), purified (HisTrap, SEC); not shown: MBP (A216H, K220H), …
T1 sequence: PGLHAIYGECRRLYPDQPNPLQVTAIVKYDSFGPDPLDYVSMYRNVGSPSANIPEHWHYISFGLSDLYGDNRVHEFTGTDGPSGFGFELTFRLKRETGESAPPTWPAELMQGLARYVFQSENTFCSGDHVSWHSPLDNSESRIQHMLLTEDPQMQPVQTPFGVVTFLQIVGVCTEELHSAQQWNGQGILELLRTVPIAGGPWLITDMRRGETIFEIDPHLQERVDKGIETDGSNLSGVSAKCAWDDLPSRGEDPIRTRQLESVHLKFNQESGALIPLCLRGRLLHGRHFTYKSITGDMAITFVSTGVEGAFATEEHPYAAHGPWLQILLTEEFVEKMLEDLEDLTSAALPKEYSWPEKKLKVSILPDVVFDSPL

B1: GLI1p (peptide, UniProt P08151 115-131, looked up)
peptide: TSPGGSYGHLSIGTMSP
notes: human GLI1, residues 115-131, holds the SYGH motif; also called human GLI1-derived peptide; source: synthetic peptide (Dr W. Mawby, University of Bristol)
B2: MBP-SUFU-FL (domain or fragment, human, UniProt Q9UMX1 32-483, looked up)
chain: PGLHAIYGECRRLYPDQPNPLQVTAIVKYWLGGPDPLDYVSMYRNVGSPSANIPEHWHYISFGLSDLYGDNRVHEFTGTDGPSGFGFELTFRLKRETGESAPPTWPAELMQGLARYVFQSENTFCSGDHVSWHSPLDNSESRIQHMLLTEDPQMQPVQTPFGVVTFLQIVGVCTEELHSAQQWNGQGILELLRTVPIAGGPWLITDMRRGETIFEIDPHLQERVDKGIETDGSNLSGVSAKCAWDDLSRPPEDDEDSRSICIGTQPRRLSGKDTEQIRETLRRGLEINSKPVLPPINPQRQNGLAHDRAPSRKDSLESDSSTAIIPHELIRTRQLESVHLKFNQESGALIPLCLRGRLLHGRHFTYKSITGDMAITFVSTGVEGAFATEEHPYAAHGPWLQILLTEEFVEKMLEDLEDLTSPEEFKLPKEYSWPEKKLKVSILPDVVFDSPL
notes: human SUFU (Suppressor of fused), residues 32-483, called essentially full length; MBP is joined to SUFU by a three-alanine linker; vector pLJMBP4c (Monné et al., 2008); also called SUFU_(32–483); source: E. coli JM109 (DE3), purified (HisTrap, SEC); not shown: MBP, N-terminal, kept
B3: MBP-SUFU-Δ (domain or fragment, human)
chain: PGLHAIYGECRRLYPDQPNPLQVTAIVKYWLGGPDPLDYVSMYRNVGSPSANIPEHWHYISFGLSDLYGDNRVHEFTGTDGPSGFGFELTFRLKRETGESAPPTWPAELMQGLARYVFQSENTFCSGDHVSWHSPLDNSESRIQHMLLTEDPQMQPVQTPFGVVTFLQIVGVCTEELHSAQQWNGQGILELLRTVPIAGGPWLITDMRRGETIFEIDPHLQERVDKGIETDGSNLSGVSAKCAWDDLPSRGEDPIRTRQLESVHLKFNQESGALIPLCLRGRLLHGRHFTYKSITGDMAITFVSTGVEGAFATEEHPYAAHGPWLQILLTEEFVEKMLEDLEDLTSPEEFKLPKEYSWPEKKLKVSILPDVVFDSPL
notes: human SUFU, residues 32-278; heptamer that replaces amino acids 279-360 (the IDR); human SUFU, residues 361-483; Same frame as MBP-SUFU-FL (three-alanine linker after MBP); source: E. coli JM109 (DE3), purified (HisTrap, SEC); not shown: MBP, N-terminal, kept
B4: FAM-GLI1p (peptide, UniProt P08151 115-131, looked up)
peptide: 5FAM-TSPGGSYGHLSIGTMSP
notes: human GLI1, residues 115-131; also called 5-FAM-labelled peptide; FAM-labelled GLI1p peptide; source: synthetic peptide (Pepceuticals Ltd)

Where no end group is shown, it is not given here. The star is where a group is joined. 5FAM = O=C1OC2(c3ccc(O)cc3Oc3cc(O)ccc32)c2ccc(C(=O)*)cc21

What all share (details): both partners purified
For series [1], the target named is T1, MBP_(A216H_K220H)-SUFU-Δ_(W61D_L62S_G63F …). Nature of the series: crystal structure; co-crystals of the MBP-SUFU-Δ variant with zinc acetate (1:1) and GLI1p or GLI3p (1:4); hanging drop, 4°C, PEG 3350, sodium formate.
In series [2] the target is B1. Put plainly: thermal stability assay (SYPRO Orange); 2.2 µM MBP-SUFU protein with 44 µM peptide; 50 mM Na HEPES pH 7.0, 50 mM NaCl, 5 mM β-mercaptoethanol; heated from 20 to 90°C; triplicate.
Series [3] addresses B2. Nature of the series: HDX-MS; MBP-SUFU-FL with a 5.5-fold excess of GLI3p, incubated 1 h; exchange 300, 600 and 1800 s at 4°C; 50 mM Na HEPES pH 7.0, 50 mM NaCl, 5 mM β-mercaptoethanol, 1.5 mM maltose.
The target of series [4] is B2. Put plainly: MST; 50 nM FAM-GLI1p, MBP-SUFU constructs titrated (14.2–29 070 and 54–110 500 nM); 50 mM Tris–HCl pH 7.6, 150 mM NaCl, 10 mM MgCl2, 0.05% Tween-20; three independent measurements.

B1: the binding result in series [1] was “binds”.

As for B2, the “Tm shift on addition of GLI1p” value in series [2] was found to be 4 °C.

For B3, the “Tm shift on addition of GLI1p” value in series [2] was 3.6 °C.

Take SSASGSYGHLSASAISP (peptide, UniProt P10071 328-344, looked up, human GLI3, residues 328-344) [GLI3p]: the binding result in series [1] and in series [3] was “binds” each time.

Take B4: the binding result in series [4] is on record as “binds”.

The record behind these values is publication PMC3852661, “Structural basis of SUFU–GLI interaction in human Hedgehog signalling regulation” (Acta Crystallographica Section D: Biological Crystallography, 2013).
